Test results as given in US20090018093.
Like-named read-outs stand apart in the source and are kept apart here.

Test system: Immunoglobulin E (IgE) (Homo sapiens), P01854-1
Experiment: filter
[1] = 2'-OMe/2'-deoxy mix, 3:21 pair changed, DPBS Mg/Ca, 0.1 mg/mL BSA, RT

Immunoglobulin E (IgE) (Homo sapiens), P01854-1, sequence (P01854 other isoform, or with tags, fused parts or gaps): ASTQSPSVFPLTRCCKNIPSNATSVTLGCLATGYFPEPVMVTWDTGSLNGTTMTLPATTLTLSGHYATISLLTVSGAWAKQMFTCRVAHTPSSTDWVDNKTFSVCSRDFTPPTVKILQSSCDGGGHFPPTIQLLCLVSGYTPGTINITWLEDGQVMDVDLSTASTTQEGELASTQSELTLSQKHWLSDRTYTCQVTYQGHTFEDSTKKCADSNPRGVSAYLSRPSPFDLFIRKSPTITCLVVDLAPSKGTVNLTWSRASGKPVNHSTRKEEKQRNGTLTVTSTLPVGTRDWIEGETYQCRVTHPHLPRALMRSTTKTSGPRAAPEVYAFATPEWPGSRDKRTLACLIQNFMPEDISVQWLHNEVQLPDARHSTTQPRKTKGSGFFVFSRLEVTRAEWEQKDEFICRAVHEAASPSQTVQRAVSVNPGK

Sequence: GGGGCTACUTTATCCGTTCCTCCTAGTGGGTAGCCCC [ARC1273]
- Kd (DNA with 2'-OMe U9, 3' idT [2'-OMe U9, 3' inverted dT38], dPBS Ca/Mg + BSA): 3 nM

Sequence: GGGGCTACTTTATCCGTTCCTCCTAGTGGGTAGCCCCT [ARC1279]
- Kd (2'-OMe at 15, 3' idT [15 (2'-OMe C), 38 (3' inverted dT)], DPBS Mg/Ca, BSA): 0.8 nM

Sequence: GGGGCTACTTTATCCGTTCCTCCTAGTGGGTAGCCCCN [ARC1296]
- Kd (2'-OMe at 32, 3' idT, DPBS Mg/Ca, BSA): 1.2 nM

Sequence: AGCCUGGGNGACCCAUNNNGNNGNNGNCNUNN [ARC3269]
- Kd (ARC2342 chemistry with 2'-OMe G8, 3' idT, DPBS Mg/Ca, BSA, RT): 0.52 nM

Sequence: AGCCUGGGNGNACCCAUNNNGNNGNNGCUN [ARC2976]
- Kd (ARC1666 pattern plus PS between G9 and A10, 3' idT, dPBS Ca/Mg + BSA, RT): 0.3 nM

Sequence: AGCCUGGGGACCCAUGGGGGGCU [ARC906]
- Kd (dRmY, 7-deaza-dG at G9 [7-deaza-dG: 9, 2'-OMe: 3-5,11-13,15,22,23, deoxy: all A,G], dPBS Ca/Mg + BSA, RT): 88 nM

Sequence: AGNCCUGGGNGACCCAUNNNGNNGNNGCUN [ARC2970]
- Kd (ARC1666 chemistry + PS 2-3, 3' idT, DPBS Mg/Ca, BSA, RT): 0.04 nM

Sequence: AGACUGGGGACCCAUGGGGGUCU [ARC1248]
- Kd [1]: 38 nM

Sequence: GGGGCTACTTTATCCGTTCCTCCTAGTGGGTAGCCCCT [ARC1302]
- Kd (DNA with 2'-OMe G1-G4,A7,G30,A32,G33, 3' idT [2'-OMe G1-G4, A7, G30, A32, G33, 3' inverted dT at 38], dPBS Ca/Mg + BSA): 19 nM

Sequence: GGGGCTACTTTATCCGTTCCTCCTAGTGGGTAGCCCCT [ARC1387]
- Kd (2'-OMe at 1-4,7,33-37, 3' idT [2'-OMe: 1-4,7,33-37, 38 = 3' inverted dT], DPBS Mg/Ca, BSA): 2.4 nM

Sequence: AGCCUGGGNGACCCAUNNNGNNGNNGCUN [ARC3268]
- Kd (ARC1666 chemistry with 2'-OMe G8,G9,I16, 3' idT, DPBS Mg/Ca, BSA, RT): 0.6 nM

Sequence: AGCCUGGNGNGACCCAUNNNGNNGNNGCUN [ARC2975]
- Kd (ARC1666 chemistry + PS 7-8, 3' idT, DPBS Mg/Ca, BSA, RT): 0.04 nM

Sequence: AGCCUGGGGACCCAUGGGGGGCU [ARC1256]
- Kd (2'-OMe C,U and A10, other A,G deoxy, 3' idT [2'-OMe: 3,4,5,10,11,12,13,15,22,23, 2'-deoxy: 1,2,6,7,8,9,14,16,17,18,19,20,21, 24 = 3' inverted dT], dPBS Ca/Mg + BSA, RT): 0.4 nM

Sequence: AGUCUGGGGACCCAUGGGGGACU [ARC1246]
- Kd [1]: 34 nM

Sequence: GGGGCTACTTTATCCGTTCCTCCTAGTGGGTAGCCCCT [ARC1410]
- Kd (DNA with 2'-OMe G1-G4,A7,G33-C37, PS between T27 and G28, 3' idT [2'-OMe G1-G4, A7, G33-C37, PS 27/28 (printed N = PS linkage, left out), 3' inverted dT at 38], dPBS Ca/Mg + BSA): 0.7 nM

Sequence: GGGAGAGGAGAGAACGUUCUACGAGCAGCCCUGGGGCCCGGAGGGGGAUGGUCGCUGUCGAUCGAUCGAUCGAUG [ARC1993]
- Kd (dRmY: 2'-deoxy A,G, 2'-OMe C,U, error 4, dPBS Ca/Mg + BSA, RT): 9 nM

Sequence: AGCCUGGGGACCCAUGGGGGGCU [ARC1254]
- Kd (2'-OMe C,U and G8, other A,G deoxy, 3' idT [2'-OMe: 3,4,5,8,11,12,13,15,22,23, 2'-deoxy: 1,2,6,7,9,10,14,16,17,18,19,20,21, 24 = 3' inverted dT], dPBS Ca/Mg + BSA, RT): 24 nM

Sequence: AGCCUGGGGACCCAUGGGGGGCU [ARC1263]
- Kd (2'-OMe C,U and G21, other A,G deoxy, 3' idT [2'-OMe: 3-5,11-13,15,21-23, deoxy: 1,2,6-10,14,16-20, 24 = 3' inverted dT], dPBS Ca/Mg + BSA, RT): 64 nM

Sequence: AGCCUGGGGACCCAUGGGGGGCU [ARC902]
- Kd (dRmY (2'-OMe C,U), 7-deaza-dG2 [7-deaza-dG at 2, 2'-OMe C3,C4,U5,C11,C12,C13,U15,C22,U23, A,G 2'-deoxy], DPBS Mg/Ca, 0.1 mg/mL BSA, RT): 9 nM

Sequence: GGGGCTACTTTATCCGTTCCTCCTAGTGGGTAGCCCC [ARC1404]
- Kd (2'-OMe at 1-4,7,33-37, PS 21-22, 3' idT [2'-OMe at 1-4,7,33-37, PS linkage 21-22 (internal N = PS, not a base), 3' inverted dT cap (terminal N, left out)], DPBS Mg/Ca, BSA): 1.8 nM

Sequence: GGAAUCAUACACAAGACGUCAGUAAGAUUGAGUGUAUGGUUCC [rRfY minimer SEQ 95]
- Kd (2'-F C and U, KD2 117.2 nM, 1xSHMCK + tRNA): 4.5 nM

Sequence: GGGGCTACTTTAUCCGTTCCTCCTAGTGGGTAGCCCC [ARC1277]
- Kd (DNA with 2'-OMe U13, 3' idT [2'-OMe U13, 3' inverted dT38], dPBS Ca/Mg + BSA): 6 nM

Sequence: AGCCUGGGGACCCAUGGGGGGCU [ARC3262]
- Kd (ARC1666 pattern with 2'-OMe G8, 3' idT [dI (written G) at 16,18,20, 2'-OMe 1-5,7,8,10-15,17,22,23, deoxy 6,9,16,18-21, PS 8/9,15/16,16/17,18/19,20/21, 3' inverted dT left out], dPBS Ca/Mg + BSA, RT): 0.16 nM

Sequence: GGGGCTACTTTATCCGTTCCTCCUAGTGGGTAGCCCCN [ARC1288]
- Kd (2'-OMe U at 24, 3' idT, DPBS Mg/Ca, BSA): 2 nM

Sequence: GGGGCTACTTTATCCGTTCCTCCTAGTGGGTAGCCCC [ARC1406]
- Kd (2'-OMe at 1-4,7,33-37, PS 23-24, 3' idT [2'-OMe at 1-4,7,33-37, PS 23-24, 3' idT cap after 37 (left out)], DPBS Mg/Ca, BSA): 3.2 nM

Sequence: GGGGCTACTTTATCCGTTCCTCCTAGTGGGTAGCCCC [ARC1415]
- Kd (2'-OMe at 1-4,7,33-37, multiple PS as printed, 3' idT [2'-OMe at 1-4,7,33-37, PS 9-10,12-13,14-15,18-19,21-22,24-25,27-28,30-31, 3' idT cap after 37 (left out)], DPBS Mg/Ca, BSA): 1.2 nM

Sequence: AGCCUGGGNGACCCAUNNNGNNGNNGNCNUN [ARC2341]
- Kd (ARC1666 chemistry + PS 21-22,22-23, 3' idT, DPBS Mg/Ca, BSA, RT): 0.05 nM

Sequence: GGGGCTACTTTATCCGTTCCTCCTAGTGGGTAGCCCC [ARC1397]
- Kd (2'-OMe at 1-4,7,33-37, PS 14-15, 3' idT [2'-OMe at 1-4,7,33-37, PS linkage 14-15 (internal N = PS, not a base), 3' inverted dT cap (terminal N, left out)], DPBS Mg/Ca, BSA): 1.8 nM

Sequence: GGGGCUACTTTATCCGTTCCTCCTAGTGGGUAGCCCC [ARC1303]
- Kd (2'-OMe stem block as printed in Table 18, 3' idT [2'-OMe: stem block (exact positions not given in the material), 38 = 3' inverted dT], DPBS Mg/Ca, BSA): 1.3 nM

Sequence: AGCCUGGGGACCCAUGGGGGGCU [ARC1565]
- Kd (ARC1335 chemistry with dI19 as printed, 3' idT [19=dI (G parent), 24=3' inverted dT], DPBS Mg/Ca, 0.1 mg/mL BSA, RT): 1.4 nM

Sequence: GGGCTACTTTATCCGTCCCTCCTAGTGGGTAGCCCC [DNA clone SEQ 140]
- Kd: 0.2 nM

Sequence: AGCCUGGGNGACCCAUNNNGNNGNNGNCNUNN [ARC3274]
- Kd (ARC2342 chemistry with 2'-OMe G9,I16, 3' idT, DPBS Mg/Ca, BSA, RT): 0.12 nM

Sequence: GGGGCTACTTTATCCGTTCCTCCTAGTGGGTAGCCCCN [ARC1284]
- Kd (2'-OMe at 20, 3' idT, DPBS Mg/Ca, BSA): 0.1 nM

Sequence: GGGGCTACTTTATCCGTTCCTCCTAGTGGGTAGCCCCT [ARC1266]
- Kd (2'-OMe at 2, 3' idT [2 (2'-OMe G), 38 (3' inverted dT)], DPBS Mg/Ca, BSA): 0.2 nM

Sequence: AGUCUGGGGACCCAUGGGGGACU [ARC1247]
- Kd [1]: 192 nM

Sequence: GGGGCUACTTUATCCGUUCCTCCTAGTGGGTAGCCCC [ARC1417]
- Kd (DNA with 2'-OMe 1-8,U11,U17,U18,C20,33-37, multiple PS, 3' idT [2'-OMe 1-8, U11, U17, U18, C20, 33-37, PS 9/10, 12/13, 14/15, 21/22, 24/25, 27/28, 30/31 (printed N = PS linkage, left out), 3' inverted dT at 38], dPBS Ca/Mg + BSA): 27 nM

Sequence: GGGGCAGCTTTATCCGTACCTCCCAGTGGGCTGCCCC [ARC474]
- Kd: 0.7 nM

Sequence: AGUAGCCUGGGGACCCAUGGGGGGCUACU [ARC3276]
- Kd (mAmGmUmAmGmCmCmUdGmGdG-s-dGmAmCmCmCmAmU-s-dI-s-mGdI-s-dGdI-s-dGmCmUmAmCmU [dI (written G) at 19,21,23, 2'-OMe 1-8,10,13-18,20,25-29, deoxy 9,11,12,19,21-24, PS 11/12,18/19,19/20,21/22,23/24, 3' inverted dT left out], dPBS Ca/Mg + BSA, RT): 0.03 nM

Sequence: GGGAGAGGAGAGAACGUUCUACAUUGUGCUCCUGGGGCCCAGUGGGGAGCCACGCUGUCGAUCGAUCGAUCGAUG [ARC1995]
- Kd (dRmY: 2'-deoxy A,G, 2'-OMe C,U, error 2, dPBS Ca/Mg + BSA, RT): 4 nM

Sequence: AGCCUGGGGACCCAUGGGGGGCU [ARC1258]
- Kd (2'-OMe C,U and G16, other A,G deoxy, 3' idT [2'-OMe: 3,4,5,11,12,13,15,16,22,23, 2'-deoxy: 1,2,6,7,8,9,10,14,17,18,19,20,21, 24 = 3' inverted dT], dPBS Ca/Mg + BSA, RT): 15 nM

Sequence: GGGGCTACTTTATCCGTTCCTCCTAGTGGGTAGCCCC [ARC1402]
- Kd (2'-OMe at 1-4,7,33-37, PS 19-20, 3' idT [2'-OMe at 1-4,7,33-37, PS linkage 19-20 (internal N = PS, not a base), 3' inverted dT cap (terminal N, left out)], DPBS Mg/Ca, BSA): 2.1 nM

Sequence: AGCCUGGGGACCCAUGGGGGGCU [ARC1332]
- Kd (2'-OMe G2,A10,A14 and all C,U, rest 2'-deoxy, 3' idT [2'-OMe G2,C3,C4,U5,A10,C11,C12,C13,A14,U15,C22,U23, 3' inverted dT at 24], DPBS Mg/Ca, 0.1 mg/mL BSA, RT): 0.5 nM

Sequence: GGGGCTACTTTATCCGTTCCTCCTAGTGGGTAGCCCCT [ARC1268]
- Kd (2'-OMe at 4, 3' idT [4 (2'-OMe G), 38 (3' inverted dT)], DPBS Mg/Ca, BSA): 0.2 nM

Sequence: AGCCUGGGGACCCAUGGGGGGCU [ARC1562]
- Kd (ARC1335 chemistry with dI16, G17 deoxy as printed, 3' idT [16=dI (G parent), 17=deoxy G, 24=3' inverted dT], DPBS Mg/Ca, 0.1 mg/mL BSA, RT): 0.6 nM

Sequence: GGGAAAAGCGAAUCAUACACAAGAGUGCAAGAAGUGCAUUGCUGUGUCUGGUUCUUGGCGAUGUGCUCCGCCAGAGACCAACCGAGAA [rRfY clone SEQ 17]
- binding signal (2'-F C,U, ratio bound +/- 20 nM IgE): 0.76

Sequence: AGCCUGGGGACCCAUGGGGGGC [ARC2344]
- Kd (ARC1666 pattern without 3' idT [dI (written G) at 16,18,20, 2'-OMe 1-5,7,10-15,17,22, deoxy 6,8,9,16,18-21, PS 8/9,15/16,16/17,18/19,20/21, no 3' idT], dPBS + BSA, RT): 0.41 nM
